B1: T-KGF: SEQ ID NO: 1 peptide C-terminal linked to N-terminal of KGF via GG linker (protein)
chain: NGSLNTHLAPILGGCNDMTPEQMATNVNCSSPERHTRSYDYMEGGDIRVRRLFCRTQWYLRIDKRGKVKGTQEMKNNYNIMEIRTVAVGIVAIKGVESEFYLAMNKEGKLYAKKECNEDCNFKELILENHYNTYASAKWTHNGGEMFVALNQKGIPVRGKKTKKEQKTAHFLPMAIT
modifications: Synthetic Fusion protein of T-KGF
B2: KGF: keratinocyte growth factor having an amino acid sequence of SEQ ID NO: 44 (protein)
chain: CNDMTPEQMATNVNCSSPERHTRSYDYMEGGDIRVRRLFCRTQWYLRIDKRGKVKGTQEMKNNYNIMEIRTVAVGIVAIKGVESEFYLAMNKEGKLYAKKECNEDCNFKELILENHYNTYASAKWTHNGGEMFVALNQKGIPVRGKKTKKEQKTAHFLPMAIT
modifications: Human KGF
B3: T-VEGF: SEQ ID NO: 1 peptide C-terminal linked to N-terminal of VEGF via GG linker (protein)
chain: NGSLNTHLAPILGGAPMAEGGGQNHHEVVKFMDVYQRSYCHPIETLVDIFQEYPDEIEYIFKPSCVPLMRCGGCCNDEGLECVPTEESNITMQIMRIKPHQGQHIGEMSFLQHNKCECRPKKDRARQENPCGPCSERRKHLFVQDPQTCKCSCKNTDSRCKARQLELNERTCRCDKPRR
modifications: Synthetic Fusion protein of T-VEGF

Key:
[1] = system: dermal papilla cells; assay: Hair follicle stem cell proliferation: dermal papilla cells, Cell Counter Kit-8; format: cell-based; settings: for Proliferation (%): one day, control = 100; for cell proliferation effect compared with the unfused protein: dermal papilla cells
Procedure: (§1) Specifically, dermal papilla cells were inoculated onto a 96-well plate and cultured for 24 hours to obtain cultures at a density of 6,000 cells per well. The cultures were washed with PBS and cultured in a serum-free DMEM medium for one day. The cells were washed with PBS again and cultured in a serum-free DMEM medium supplemented with 1 ng/mL T-PDGFa or PDGFa for one day. The cultures were obtained therefrom and a difference between proliferated amounts of cells was quantitively analyzed using the Cell Counter Kit-8 (Dojindo). Here, dermal papilla cells cultured in a serum-free DMEM medium without T-PDGFa or PDGFa were used as a control (Table 6).
Specifically, dermal papilla cells were inoculated onto a 96-well plate and cultured for 24 hours to obtain cultures at a density of 6,000 cells per well. The cultures were washed with PBS and cultured in a serum-free DMEM medium for one day. […] The cultures were obtained therefrom and a difference between proliferated amounts of cells was quantitively analyzed using the Cell Counter Kit-8 (Dojindo).
as §1, with “T-IGF-1” for “T-PDGFa”, “IGF-1” for “PDGFa”, “15).” for “6).”
as §1, with “10” for “1”, “T-KGF” for “T-PDGFa”, “KGF” for “PDGFa”, “19).” for “6).”
as §1, with “10” for “1”, “T-Tβ4” for “T-PDGFa”, “Tβ4” for “PDGFa”, “23).” for “6).”

[2] = Skin penetrability of growth factor fusion proteins (Franz glass cell, ELISA); format: in vitro ADME, porcine; settings: for Penetrated amount (%): 2 μg, 16 hours; for skin penetrability compared with the unfused protein: summary of Tables 7, 12, 16, 20, 24
Procedure: (§2) Specifically, porcine skin (thickness: 0.7 mm, Medikinetics) was placed between upper and lower ends of Franz glass cell (standard diameter: 9 mm, Receiver 5 mL, Permegear), and TBS (50 mM Tris pH 7.5, 150 mM NaCl) including 1% BSA and 0.01% Tween 20 was prepared. Then, 500 μL of the TBS was applied to the upper end of the glass cell (Donor chamber), and 5 mL of the TBS was applied to the lower end of the glass cell, (Receiver chamber). Subsequently, 2 μg of PDGFa or T-PDGFa was applied to the upper end of the glass cell, followed by reaction for 16 hours. Then, a concentration of PDGFa or T-PDGFa was quantitatively analyzed using the ELISA kit (R&D Systems), and a relative amount of T-PDGFa to PDGFa was calculated as a penetrated amount (Table 7).
Specifically, porcine skin (thickness: 0.7 mm, Medikinetics) was placed between upper and lower ends of Franz glass cell (standard diameter: 9 mm, Receiver 5 mL, Permegear), and TBS (50 mM Tris pH 7.5, 150 mM NaCl) including 1% BSA and 0.01% Tween 20 was prepared. Then, 500 μL of the TBS was applied to the upper end of the glass cell (Donor chamber), and 5 mL of the TBS was applied to the lower end of the glass cell, (Receiver chamber).
as §2, with “IGF-1” for “PDGFa”, “T-IGF-1” for “T-PDGFa”, “16).” for “7).”
as §2, with “KGF” for “PDGFa”, “T-KGF” for “T-PDGFa”, “20).” for “7).”
as §2, with “Tβ4” for “PDGFa”, “T-Tβ4” for “T-PDGFa”, “24).” for “7).”

Molecule | Proliferation (%) ([1]; 10 ng/mL T-KGF or KGF) | cell proliferation effect compared with the unfused protein [1] | Penetrated amount (%) ([2]; relative to KGF) | skin penetrability compared with the unfused protein [2] | Proliferation (%) ([1]; 1 ng/mL T-VEGF or VEGF) | Penetrated amount (%) ([2]; relative to VEGF)
B1 | 270 ± 15 | same level | 310 ± 12 | about three times higher |  | 
B2 | 360 ± 35 |  | 100 ± 18 |  |  | 
B3 |  | same level |  | about three times higher | 310 ± 20 | 295 ± 21
